In patent US20220251204A1 (AstraZeneca / MedImmune, published 2022):

B1: hOX40-Fc (human recombinant protein, R&D Systems) (Fc fusion)
chain: LHCVGDTYPSNDRCCHECRPGNGMVSRCSRSQNTVCRPCGPGFYNDVVSSKPCKPCTWCNLRSGSERKQLCTATQDTVCRCRAGTQPLDSYKPGVDCAPCPPGHFSPGDNQACKPWTNCTLAGKHTLQPASNSSDAICEDRDPPATQPQETQGPPARPITVQPTEAWPRTSQGPSTRPVEVPGGRAVA
notes: also called human OX40-Fc; not shown: Fc part of the bought fusion

Tests used:
[1] = molecular target: T1, His-tagged PD-L1-Fc (human recombinant protein, R&D Systems) (human, UniProt Q9NZQ7 19-238); experiment: Octet: PDL1-HiS-Fc loaded anti-HiS sensor, 5ug/mL rhOx40-Fc association
T1 construct: also called PD-L1-His
T1 sequence (Q9NZQ7 19-238 limits assumed): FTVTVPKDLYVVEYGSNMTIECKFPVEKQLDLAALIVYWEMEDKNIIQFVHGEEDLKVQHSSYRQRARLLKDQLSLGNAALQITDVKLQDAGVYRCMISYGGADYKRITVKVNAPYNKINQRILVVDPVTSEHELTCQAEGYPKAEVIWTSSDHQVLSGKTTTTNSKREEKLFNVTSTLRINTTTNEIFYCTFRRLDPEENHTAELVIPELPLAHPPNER

[2] = molecular target: T2, human PD-1 expressed on cells (human, UniProt Q15116 25-288); experiment: flow cytometry, CHO cells expressing PD-1:CTLA-4 (10:1)
T2 construct: also called CHO cells overexpressing human PD1
T2 sequence (Q15116 25-288 limits assumed): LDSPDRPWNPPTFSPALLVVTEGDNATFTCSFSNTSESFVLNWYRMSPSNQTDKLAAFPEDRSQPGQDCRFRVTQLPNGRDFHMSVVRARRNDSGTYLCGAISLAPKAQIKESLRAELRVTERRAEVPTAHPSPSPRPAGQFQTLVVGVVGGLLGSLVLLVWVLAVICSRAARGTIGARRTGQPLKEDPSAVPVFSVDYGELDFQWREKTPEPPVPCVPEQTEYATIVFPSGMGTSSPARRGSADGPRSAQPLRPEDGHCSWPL

[3] = molecular target: T3, cynomolgus PD-1 (cynomolgus, UniProt B0LAJ3 25-170); experiment: SPR, BIAcore T200; antibody captured on mouse anti-huIgG-Fab, antigen injected
T3 construct: also called cyno PD1
T3 sequence (B0LAJ3 entry or part of it limits assumed): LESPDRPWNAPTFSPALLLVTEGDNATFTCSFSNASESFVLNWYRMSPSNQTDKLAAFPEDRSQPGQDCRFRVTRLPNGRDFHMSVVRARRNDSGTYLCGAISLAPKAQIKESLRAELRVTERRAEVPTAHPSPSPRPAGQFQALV

[4] = molecular target: T4, mouse PD-1 (mouse, UniProt Q02242 25-167); experiment: as above
T4 construct: also called mu PD1
T4 sequence (looked up): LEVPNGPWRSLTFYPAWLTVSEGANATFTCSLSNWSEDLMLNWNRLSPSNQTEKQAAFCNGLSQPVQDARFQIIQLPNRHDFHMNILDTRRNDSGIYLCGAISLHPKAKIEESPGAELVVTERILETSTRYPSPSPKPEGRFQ

[5] = molecular target: T5, human PD-1 antigen (soluble) (human, UniProt Q15116 25-170); experiment: as above
T5 construct: also called hu PD1; Biotinylated human PD-1
T5 sequence (Q15116 25-170 limits assumed): as the sequence (B0LAJ3 entry or part of it limits assumed) above, with E2D, A10P, L19V, A35T, R75Q, A144T counted along it

[6] = molecular target: T2, human PD-1 expressed on cells; experiment: flow cytometry, IgG binding to cultured T cells stimulated with anti-CD3+anti-CD28, CD4+ gate
[7] = molecular target: T2, human PD-1 expressed on cells; experiment: flow cytometry receptor occupancy, CHO cells expressing PD-1:CTLA-4 (10:1); free PD-1 detected with labeled anti-PD-1 mAb
[8] = molecular target: T2, human PD-1 expressed on cells; experiment: flow cytometry receptor occupancy, CHO cells expressing PD-1:CTLA-4 (40:1); free PD-1 detected with labeled anti-PD-1 mAb
[9] = molecular target: T2, human PD-1 expressed on cells; experiment: flow cytometry receptor occupancy, CHO cells expressing PD-1:CTLA-4 (40:1), combination of the anti-PD-1 and anti-CTLA-4 mAbs; free PD-1 detected with labeled anti-PD-1 mAb; the light-triangle curve crosses 50 % at about 6 to 7 nM
[10] = molecular target: T6, CD32a expressed on HEK cells (UniProt P12318 34-317); experiment: flow cytometry (HyperCyt, FL4-H median) on HEK CD32a cells, concentration not given
T6 construct: whole, on cells; also called HEK CD32a cells
T6 sequence (looked up): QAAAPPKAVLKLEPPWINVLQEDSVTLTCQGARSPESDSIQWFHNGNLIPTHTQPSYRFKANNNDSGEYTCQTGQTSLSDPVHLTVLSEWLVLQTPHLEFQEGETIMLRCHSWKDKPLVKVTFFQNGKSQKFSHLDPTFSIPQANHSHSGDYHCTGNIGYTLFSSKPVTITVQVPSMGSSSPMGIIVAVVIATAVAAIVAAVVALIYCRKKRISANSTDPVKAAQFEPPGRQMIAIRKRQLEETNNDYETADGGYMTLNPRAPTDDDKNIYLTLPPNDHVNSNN

[11] = molecular target: B1; experiment: Octet: antibody held on PDL1-HiS-Fc loaded anti-HiS sensor, then 5ug/mL rhOx40-Fc association
[12] = molecular target: T7, human OX40 expressed on cells (human, UniProt P43489 29-277); experiment: flow cytometry (HyperCyt, FL4-H median) on Jurkat OX40 cells, one condition, concentration not given
T7 construct: also called CHO cells expressing human OX40; Jurkat OX40 reporter cells
T7 sequence: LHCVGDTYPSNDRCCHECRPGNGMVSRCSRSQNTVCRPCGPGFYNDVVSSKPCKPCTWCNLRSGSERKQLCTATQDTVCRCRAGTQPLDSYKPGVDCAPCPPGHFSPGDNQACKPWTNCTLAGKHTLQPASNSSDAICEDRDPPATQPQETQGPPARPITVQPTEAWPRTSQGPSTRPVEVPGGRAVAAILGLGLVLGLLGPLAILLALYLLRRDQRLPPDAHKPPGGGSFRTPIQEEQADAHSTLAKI

[13] = molecular target: T8, human TIM3 expressed on CHO cells (human, UniProt Q8TDQ0 22-301); experiment: flow cytometry, Human TIM3 CHO cells, x axis hIgG1TM (nM)
T8 construct: also called CHO cells overexpressing human TIM3
T8 sequence: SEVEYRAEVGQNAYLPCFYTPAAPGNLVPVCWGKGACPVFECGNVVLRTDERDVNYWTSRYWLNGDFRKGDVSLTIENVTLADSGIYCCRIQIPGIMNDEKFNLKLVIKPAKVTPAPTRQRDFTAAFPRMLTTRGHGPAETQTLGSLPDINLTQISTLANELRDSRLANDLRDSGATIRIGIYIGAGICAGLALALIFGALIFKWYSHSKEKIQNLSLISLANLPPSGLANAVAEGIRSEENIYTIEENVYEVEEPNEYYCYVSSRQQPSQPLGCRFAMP

[14] = molecular target: T2, human PD-1 expressed on cells; experiment: flow cytometry, HumanPD1 CHO cells, x axis hIgG1TM mAb (nM)
[15] = molecular target: T9, human TIM3 (soluble) (human, UniProt Q8TDQ0 22-202); experiment: SPR, BIAcore T200; antibody captured on mouse anti-huIgG-Fab, antigen injected
T9 construct: also called Biotinylated human TIM3
T9 sequence: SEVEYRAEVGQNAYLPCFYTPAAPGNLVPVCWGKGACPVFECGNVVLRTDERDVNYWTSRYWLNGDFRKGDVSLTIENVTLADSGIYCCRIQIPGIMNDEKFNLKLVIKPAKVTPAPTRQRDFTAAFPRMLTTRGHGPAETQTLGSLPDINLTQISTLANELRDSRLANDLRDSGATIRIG

[16] = molecular target: T10, cynomolgus TIM3 (cynomolgus, UniProt A0A2K5U3G7 22-195); experiment: as above
T10 construct: also called Cyno TIM3
T10 sequence: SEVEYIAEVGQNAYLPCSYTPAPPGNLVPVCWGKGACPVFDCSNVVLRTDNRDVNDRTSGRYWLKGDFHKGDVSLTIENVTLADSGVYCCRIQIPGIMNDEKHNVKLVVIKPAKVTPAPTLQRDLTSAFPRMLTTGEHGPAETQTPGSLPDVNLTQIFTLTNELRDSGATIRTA

B1: no binding (tested: 5ug/mL) [1].

B2: Anti-PD-1 (LO115) IgG (antibody, V domains shown)
VH: EVQLVESGGGLVQPGGSLRLSCAASGFTFSDYGMHWVRQAPGKGLEWVAYISSGSYTIYSADSVKGRFTISRDNAKNSLYLQMNSLRAEDTAVYYCARRAPNSFYEYYFDYWGQGTTVTVSS
VL: QIVLTQSPATLSLSPGERATLSCSASSKHTNLYWSRHMYWYQQKPGQAPRLLIYLTSNRATGIPARFSGSGSGTDFTLTISSLEPEDFAVYYCQQWSSNPFTFGQGTKLEIK
notes: also called anti-PD-1 parental monoclonal antibody
B2 was tested, and the “EC50 (read off the curve)” value [2] was ~2 nM, the Kd [3] was 0.69 nM and the koff [3] was 0.000238 s⁻¹. For the same binder, the kon [3] was 346000 M⁻¹ s⁻¹, the Kd [4] was 447 nM and the koff [4] was 0.0665 s⁻¹. It also gave a kon [4] of 149000 M⁻¹ s⁻¹, a Kd [5] of 0.79 nM and a koff [5] of 0.000237 s⁻¹. The kon [5] was 302000 M⁻¹ s⁻¹, the “EC50 (read off the curve)” value [6] was ~1 nM and the IC50 [7] was 3.9 nM. The IC50 [8] was 5.5 nM and the IC50 [9] was 6.4 nM.

B3: OX40(SLR)/PD-L1 BiS5 (bispecific antibody, human IgG1, kappa)
heavy: QVQLQESGPGLVKPSQTLSLTCAVYGGSFSSGYWNWIRKHPGKGLEYIGYISYNAITYHNPSLKSRITINRDTSKNQYSLQLNSVTPEDTAVYYCARYKYDYEGGHAMDYWGQGTLVTVSSASTKGPSVFPLAPSSKSTSGGTAALGCLVKDYFPEPVTVSWNSGALTSGVHTFPAVLQSSGLYSLSSVVTVPSSSLGTQTYICNVNHKPSNTKVDKRVEPKSCDKTHTCPPCPAPELLGGPSVFLFPPKPKDTLMISRTPEVTCVVVDVSHEDPEVKFNWYVDGVEVHNAKTKPREEQYNSTYRVVSVLTVLHQDWLNGKEYKCKVSNKALPAPIEKTISKAKGQPREPQVYTLPPSREEMTKNQVSLTCLVKGFYPSDIAVEWESNGGGGSGGGGSEVQLVESGGGLVQPGGSLRLSCAASGFTFSRYWMSWVRQAPGKCLEWVANIKQDGSEKYYVDSVKGRFTISRDNAKNSLYLQMNSLRAEDTAVYYCAREGGWFGELAFDYWGQGTLVTVSSGGGGSGGGGSGGGGSGGGGSEIVLTQSPGTLSLSPGERATLSCRASQRVSSSYLAWYQQKPGQAPRLLIYDASSRATGIPDRFSGSGSGTDFTLTISRLEPEDFAVYYCQQYGSLPWTFGCGTKVEIKGGGGSGGGGSGQPENNYKTTPPVLDSDGSFFLYSKLTVDKSRWQQGNVFSCSVMHEALHAHYTQKSLSLSPGK
light: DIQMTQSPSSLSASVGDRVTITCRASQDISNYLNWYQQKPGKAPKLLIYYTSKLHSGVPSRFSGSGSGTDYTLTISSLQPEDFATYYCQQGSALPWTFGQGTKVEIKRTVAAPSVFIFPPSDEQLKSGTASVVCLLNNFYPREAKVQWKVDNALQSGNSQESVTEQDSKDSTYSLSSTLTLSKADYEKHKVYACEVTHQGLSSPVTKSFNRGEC
notes: also called BiS5 OX40Ab/PD-L1; PD-L1/OX40 BiS5
B3: binds [10]; binds [11]; binds [12].

B4: O13-1 IgG1-TM (antibody, V domains shown)
VH: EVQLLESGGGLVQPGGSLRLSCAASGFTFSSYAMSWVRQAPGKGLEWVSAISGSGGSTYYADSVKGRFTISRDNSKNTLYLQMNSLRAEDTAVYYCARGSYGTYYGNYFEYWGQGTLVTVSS
VL: SYVLTQPPSVSVAPGKTARITCGGDNIGGKSVHWYQQKPGQAPVLVIYYDSDRPSGIPERFSGSNSGNTATLTISRVEAGDEADYYCQVLDRRSDHFLFGGGTKLTVLG
notes: also called anti-TIM3 LOO131
With B4 the “EC50 (read off the curve)” value [13] was ~0.03 nM, the binding result [14] was “no binding (tested: about 100 nM)” and the Kd [15] was 4.01 nM. For the same binder, the koff [15] was 0.00752 s⁻¹, the kon [15] was 1.88e+06 M⁻¹ s⁻¹ and the Kd [16] was 25.7 nM. It also gave a koff [16] of 0.0718 s⁻¹ and a kon [16] of 2.79e+06 M⁻¹ s⁻¹.
